{"source": "paper PMC3761233", "key": {"[1]": {"molecular_target": "endogenous porcine aminopeptidase N on ST cells and IPI-21 cells (porcine (endogenous in ST and IPI-21 cells)) (UniProt P15145)", "assay": "flow cytometry on cells"}, "[2]": {"molecular_target": "porcine aminopeptidase N, expressed from a plasmid on BHK-21 or HEK 293T cells (porcine) (UniProt P15145)", "assay": "flow cytometry on cells"}}, "data": [{"substance": "soluble TGEV spike protein (S1 subunit fused to the human IgG Fc portion) (from UniProt P07946 29-1447) (Fc fusion)", "values": [{"measurement": "percent of cells bound (ST cells, after neuraminidase) (% of the cells)", "setting": "[1]", "result": "> 60"}, {"measurement": "percent of cells bound (ST cells, without neuraminidase) (% of the cells)", "setting": "[1]", "result": 50}, {"measurement": "percent of cells bound (BHK-21 cells expressing APN, after neuraminidase) (% of the cells)", "setting": "[2]", "result": "> 60"}]}]}
